Screen value data for 75 variants are collected here from paper doi:10.1101/2021.08.20.457142.

The chains are these.
B1: MKK7 D-site peptide (second D-site) / JNK1 alpha1 (MAPK8 isoform 1) L198A, full length (parent complex)
chain 1: SQPQRPRPTLQLPLANEAFEQP
chain 2: MSRSKRDNNFYSVEIGDSTFTVLKRYQNLKPIGSGAQGIVCAAYDAILERNVAIKKLSRPFQNQTHAKRAYRELVLMKCVNHKNIIGLLNVFTPQKSLEEFQDVYIVMELMDANLCQVIQMELDHERMSYLLYQMLCGIKHLHSAGIIHRDLKPSNIVVKSDCTLKILDFGLARTAGTSFMMTPYVVTRYYRAPEVIAGMGYKENVDLWSVGCIMGEMVCHKILFPGRDYIDQWNKVIEQLGTPCPEFMKKLQPTVRTYVENRPKYAGYSFEKLFPDVLFPADSEHNKLKASQARDLLSKMLVIDASKRISVDEALQHPYINVWYDPSEAEAPPPKIPDKQLDEREHTIEEWKELIYKEVMDLEERTKNGVIRGQPSPLAQVQQ

Variants of B1 are the subject of the assay.
In the case of chain 1 A15V, the screen value is 1.42 Z-score of the enrichment rate within one screen of 711 sequences.
In the case of chain 1 A15K it was 1.73 Z-score of the enrichment rate within one screen of 711 sequences; in that of chain 1 A15C, 1.49 Z-score of the enrichment rate within one screen of 711 sequences; in that of chain 1 A15F, 1.59 Z-score of the enrichment rate within one screen of 711 sequences.
In the case of chain 1 A15I it was 0.806 Z-score of the enrichment rate within one screen of 711 sequences; in that of chain 1 A15S, 1.46 Z-score of the enrichment rate within one screen of 711 sequences; in that of chain 1 A15Q, 1.51 Z-score of the enrichment rate within one screen of 711 sequences.
In the case of chain 1 A15T it was 1.58 Z-score of the enrichment rate within one screen of 711 sequences; in that of chain 1 A15E, 1.37 Z-score of the enrichment rate within one screen of 711 sequences.
Turning to chain 1 A15W, the screen value is 1.84 Z-score of the enrichment rate within one screen of 711 sequences.
The value for chain 1 L10A, chain 1 P13A was -0.374 Z-score of the enrichment rate within one screen of 711 sequences.
chain 1 P13A, chain 1 N16A: the screen value is 1.11 Z-score of the enrichment rate within one screen of 711 sequences.
With chain 1 R7G, the screen value was -0.481 Z-score of the enrichment rate within one screen of 711 sequences.
The value for chain 1 R7E was -0.371 Z-score of the enrichment rate within one screen of 711 sequences; that for chain 1 R7V was 0.194 Z-score of the enrichment rate within one screen of 711 sequences; that for chain 1 R7P was 0.478 Z-score of the enrichment rate within one screen of 711 sequences.
For the variant chain 1 R7I, the screen value was 0.221 Z-score of the enrichment rate within one screen of 711 sequences.
For the variant chain 1 R7K, the screen value was 0.788 Z-score of the enrichment rate within one screen of 711 sequences.
In the case of chain 1 R7F it was 0.186 Z-score of the enrichment rate within one screen of 711 sequences; in that of chain 1 R7Q, -0.0451 Z-score of the enrichment rate within one screen of 711 sequences.
The value for chain 1 R7N was -0.0352 Z-score of the enrichment rate within one screen of 711 sequences.
The value for chain 1 R7A was 0.016 Z-score of the enrichment rate within one screen of 711 sequences; that for chain 1 R7L was 0.372 Z-score of the enrichment rate within one screen of 711 sequences; that for chain 1 R7M was 0.323 Z-score of the enrichment rate within one screen of 711 sequences.
Take chain 1 L10A: the screen value is -0.392 Z-score of the enrichment rate within one screen of 711 sequences.
The value for chain 1 L10N was -0.671 Z-score of the enrichment rate within one screen of 711 sequences; that for chain 1 L10T was -0.588 Z-score of the enrichment rate within one screen of 711 sequences.
In the case of chain 1 L10S, the screen value is -0.668 Z-score of the enrichment rate within one screen of 711 sequences.
In the case of chain 1 L10G it was -0.672 Z-score of the enrichment rate within one screen of 711 sequences; in that of chain 1 L10R, -0.363 Z-score of the enrichment rate within one screen of 711 sequences.
Take chain 1 L10V: the screen value is -0.341 Z-score of the enrichment rate within one screen of 711 sequences.
In the case of chain 1 L10P it was -0.494 Z-score of the enrichment rate within one screen of 711 sequences; in that of chain 1 R5A, chain 1 T9A, 0.257 Z-score of the enrichment rate within one screen of 711 sequences; in that of chain 1 Q11E, 1.43 Z-score of the enrichment rate within one screen of 711 sequences.
Turning to chain 1 Q11C, the screen value is 1.43 Z-score of the enrichment rate within one screen of 711 sequences.
The value for chain 1 Q11Y was 2.41 Z-score of the enrichment rate within one screen of 711 sequences; that for chain 1 Q11T was 2.32 Z-score of the enrichment rate within one screen of 711 sequences.
In the case of chain 1 Q11H it was 1.89 Z-score of the enrichment rate within one screen of 711 sequences; in that of chain 1 Q11G, 0.875 Z-score of the enrichment rate within one screen of 711 sequences.
On to chain 1 Q11N, for which the screen value is 1.79 Z-score of the enrichment rate within one screen of 711 sequences.
In the case of chain 1 Q11W it was 2.17 Z-score of the enrichment rate within one screen of 711 sequences; in that of chain 1 Q11I, 1.51 Z-score of the enrichment rate within one screen of 711 sequences; in that of chain 1 P8I, 0.845 Z-score of the enrichment rate within one screen of 711 sequences.
Regarding chain 1 P8K, the screen value is 1.01 Z-score of the enrichment rate within one screen of 711 sequences.
In the case of chain 1 P8M it was 2.24 Z-score of the enrichment rate within one screen of 711 sequences; in that of chain 1 P8Q, 0.499 Z-score of the enrichment rate within one screen of 711 sequences.
For chain 1 P8V, the screen value was 0.848 Z-score of the enrichment rate within one screen of 711 sequences.
The value for chain 1 P8L was 1.88 Z-score of the enrichment rate within one screen of 711 sequences; that for chain 1 P8C was 0.83 Z-score of the enrichment rate within one screen of 711 sequences.
Consider chain 1 P8F, for which the screen value is 1.67 Z-score of the enrichment rate within one screen of 711 sequences.
As to chain 1 P8N, the screen value is 0.584 Z-score of the enrichment rate within one screen of 711 sequences.
In the case of chain 1 P8W it was 0.971 Z-score of the enrichment rate within one screen of 711 sequences; in that of chain 1 P3A, chain 1 P6A, 0.9 Z-score of the enrichment rate within one screen of 711 sequences.
Take chain 1 T9C: the screen value is 1.27 Z-score of the enrichment rate within one screen of 711 sequences.
Turning to chain 1 T9L, the screen value is 1.24 Z-score of the enrichment rate within one screen of 711 sequences.
On to chain 1 T9E, for which the screen value is 0.507 Z-score of the enrichment rate within one screen of 711 sequences.
Regarding chain 1 T9H, the screen value was 1.34 Z-score of the enrichment rate within one screen of 711 sequences.
In the case of chain 1 T9Q, the screen value is 0.994 Z-score of the enrichment rate within one screen of 711 sequences.
The value for chain 1 T9W was 1.21 Z-score of the enrichment rate within one screen of 711 sequences.
Turning to chain 1 T9Y, the screen value was 1.15 Z-score of the enrichment rate within one screen of 711 sequences.
Consider chain 1 T9F, for which the screen value was 1.43 Z-score of the enrichment rate within one screen of 711 sequences.
The value for chain 1 T9M was 1.06 Z-score of the enrichment rate within one screen of 711 sequences; that for chain 1 P8A, chain 1 T9A was 0.477 Z-score of the enrichment rate within one screen of 711 sequences.
In the case of chain 1 R7A, chain 1 N16A, the screen value is 0.334 Z-score of the enrichment rate within one screen of 711 sequences.
The value for chain 1 R5A, chain 1 P13A was 0.748 Z-score of the enrichment rate within one screen of 711 sequences.
In the case of chain 1 N16G it was 1.5 Z-score of the enrichment rate within one screen of 711 sequences; in that of chain 1 N16E, 1.28 Z-score of the enrichment rate within one screen of 711 sequences; in that of chain 1 N16A, 1.29 Z-score of the enrichment rate within one screen of 711 sequences.
With chain 1 N16L, the screen value was 1.52 Z-score of the enrichment rate within one screen of 711 sequences.
With chain 1 N16V, the screen value was 1.95 Z-score of the enrichment rate within one screen of 711 sequences.
Consider chain 1 N16P, for which the screen value is 0.929 Z-score of the enrichment rate within one screen of 711 sequences.
In the case of chain 1 N16H it was 1.43 Z-score of the enrichment rate within one screen of 711 sequences; in that of chain 1 N16T, 1.34 Z-score of the enrichment rate within one screen of 711 sequences.
As for chain 1 N16W, the screen value was 2.16 Z-score of the enrichment rate within one screen of 711 sequences.
Consider chain 1 N16C, for which the screen value is 1.62 Z-score of the enrichment rate within one screen of 711 sequences.
